Measurements as given in FireProtDB (doi:10.1529/biophysj.106.099531).
“And” between values parts separate entries of the source, which are not always exact repeats. Equal entries are not always repeated.

Details: Pseudomonas aeruginosa (strain ATCC 15692 / DSM 22644 / CIP 104116 / JCM 14847 / LMG 12228 / 1C / PRS 101 / PAO1), pH 7.5, GdnHCl, Fluorescence, Tris 1 mM, NaCl 1.93 M, reversible: Yes, whole UniProt chain shown

B1: Azurin wild type, P00282 (protein)
chain: MLRKLAAVSLLSLLSAPLLAAECSVDIQGNDQMQFNTNAITVDKSCKQFTVNLSHPGNLPKNVMGHNWVLSTAADMQGVVTDGMASGLDKDYLKPDDSRVIAHTKLIGSGEKDSVTFDVSKLKEGEQYMFFCTFPGHSALMKGTLTLK
For B1, the denaturant m value (20 °C) was 5.53 kcal/mol/M, the “denaturant midpoint (higher = more stable)” value (shortened to “denaturant midpoint”) (20 °C) was 1.74 M and the unfolding free energy (20 °C) was 9.63 kcal/mol. For the same protein, the denaturant m value (-8 °C) was 3.63 kcal/mol/M and 6.66 kcal/mol/M, the “denaturant midpoint” value (-8 °C) was 1.79 M and 1.58 M and the unfolding free energy (-8 °C) was 6.89 kcal/mol and 10.5 kcal/mol. For the same protein, the denaturant m value (-10 °C) was 3.77 kcal/mol/M, the “denaturant midpoint” value (-10 °C) was 1.73 M and the unfolding free energy (-10 °C) was 6.83 kcal/mol. For the same protein, the denaturant m value (-12 °C) was 3.85 kcal/mol/M and 6.98 kcal/mol/M, the “denaturant midpoint” value (-12 °C) was 1.7 M and 1.5 M and the unfolding free energy (-12 °C) was 6.77 kcal/mol and 10.5 kcal/mol.
